From PMC2891831, “Insight into the Mechanisms of Adenovirus Capsid Disassembly from Studies of Defensin Neutralization” (PLoS Pathogens, 2010)

Assays:
CAR receptor [1] = target: T1, CAR receptor (human (endogenous in A549), UniProt P78310 20-365); assay: flow cytometry on cells; A549 cells in PBS + 0.2% sodium azide incubated with or without 200 nM 5FK or 16FK, 45 min on ice (100 nM in the legend), then combined with Alexa Fluor 488-labelled Ad5.eGFP without defensin (virus pre-incubated with 20 µM HD5-Abu was equivalent to virus alone), 45 min on ice; settings: one partner purified
T1 construct: source: endogenous, on A549 cells
T1 sequence: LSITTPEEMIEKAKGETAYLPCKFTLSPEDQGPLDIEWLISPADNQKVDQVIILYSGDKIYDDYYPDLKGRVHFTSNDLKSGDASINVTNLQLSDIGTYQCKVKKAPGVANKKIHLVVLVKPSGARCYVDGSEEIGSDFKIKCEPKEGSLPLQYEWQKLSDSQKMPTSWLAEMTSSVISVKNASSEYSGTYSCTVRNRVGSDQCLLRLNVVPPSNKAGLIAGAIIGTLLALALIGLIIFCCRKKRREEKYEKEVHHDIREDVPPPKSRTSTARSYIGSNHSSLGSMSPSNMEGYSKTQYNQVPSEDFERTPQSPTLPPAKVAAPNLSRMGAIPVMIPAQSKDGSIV

CAR receptor [2] = target: T1, CAR receptor; assay: flow cytometry on cells; as a6, but the Alexa Fluor 488-labelled Ad5.eGFP was pre-incubated with 20 µM HD5 for 45 min on ice; settings: one partner purified

B1: recombinant HAdV-5 fiber knob (domain or fragment)
chain: GAITVGNKNNDKLTLWTTPAPSPNCRLNAEKDAKLTLVLTKCGSQILATVSVLAVKGSLAPISGTVQSAHLIIRFDENGVLLNNSFLDPEYWNFRNGDLTEGTAYTNAVGFMPNLSAYPKSHGKTAKSNIVSQVYLNGDKTKPVTLTITLNGTQETGDTTPSAYSMSFSWDWSGHNYINEIFATSSYTFSYIAQE
notes: fiber knob, residues 387-581 of the HAdV-5 fiber; also called 5FK
In the case of B1, the “fold reduction of HAdV-5 binding to cells with 5FK compared to 16FK” value (CAR receptor [1]) is reported as 5.2 fold and the “fold reduction of HAdV-5 binding to cells with 5FK compared to 16FK, virus pre-incubated with HD5” value (CAR receptor [2]) is reported as 1.6 fold.
